This is an account of results in patent US20070036810A1, “Cyclic amp response element activator proteins and uses related thereto” (priority 2003, published 2007).

“Also recorded” adds a separate entry of the source.

In the assay the test system is pCRE-Luc reporter (cyclic AMP response element). In words: pCRE-Luc reporter assay of CREAP1 deletion fragments in Hela cells. As to conditions: for Activity: Flag-CREAP1 deletion constructs co-transfected with pCRE-Luc in Hela cells, Dual-Glo Luciferase 40 hrs after transfection. It is filed as cell-based. As to the method: CREAP1 protein amino acids 1-170, 1-356, […], 1-580 and 170-650 are inserted into pFlag-CMV4 expression vector (Sigma, St. Louis, Mo.) by utilizing PCR strategy familiar to one of skill in the art. 10^4 Hela cells are split into each well of 96 well tissue culture plates. Cells are transfected 16 hours later with 100 ng of pCRE-Luc reporter construct, 30 ng of Renilla luciferase control plasmid together with 100 ng of pCMVSPORT6, pCMVSPORT-CREAP1 and different Flag-CREAP1 deletion fusion constructs respectively. Transfection is done with Fugene6 reagent (Roche Applied Biosciences) following the manufacturer's instructions. A Dual-Glo Luciferase assay (Promega) is conducted 40 hrs after transfection. Firefly luciferase counts are normalized to Renilla luciferase and plotted.
To dissect the functional domains within the CREAP1 molecule, CREAP1 protein fragments of amino acids 1-170, 1-356, 1-494, 1-580 and 170-650 were subcloned into pFlag-CMV4 vector by utilizing PCR based strategy and tested for function in a Dual Glo Luciferase assay as described above.

B1: K3: CREAP1 fragment, amino acids 1-494, SEQ ID NO 34, Flag fusion (protein)
chain: MATSNNPRKFSEKIALHNQKQAEETAAFEEVMKDLSLTRAARLQLQKSQYLQLGPSRGQYYGGSLPNVNQIGSGTMDLPFQPSGFLGEALAAAPVSLTPFQSSGLDTSRTTRHHGLVDRVYRERGRLGSPHRRPLSVDKHGRQADSCPYGTMYLSPPADTSWRRTNSDSALHQSTMTPTQPESFSSGSQDVHQKRVLLLTVPGMEETTSEADKNLSKQAWDTKKTGSRPKSCEVPGINIFPSADQENTTALIPATHNTGGSLPDLTNIHFPSPLPTPLDPEEPTFPALSSSSSTGNLAANLTHLGIGGAGQGMSTPGSSPQHRPAGVSPLSLSTEARRQQASPTLSPLSPITQAVAMDALSLEQQLPYAFFTQAGSQQPPPQPQPPPPPPPASQQPPPPPPPQAPVRLPPGGPLLPSASLTRGPQPPPLAVTVPSSLPQSPPENPGQPSMGIDIASAPALQQYRTSAGSPANQSPTSPVSNQGFSPGSSPQHTS
modifications: Flag tag; human
As for B1, the Activity entry is listed as “Partially Active”.

B2: K5: CREAP1 fragment, amino acids 170-650, SEQ ID NO 36, Flag fusion (protein)
chain: ALHQSTMTPTQPESFSSGSQDVHQKRVLLLTVPGMEETTSEADKNLSKQAWDTKKTGSRPKSCEVPGINIFPSADQENTTALIPATHNTGGSLPDLTNIHFPSPLPTPLDPEEPTFPALSSSSSTGNLAANLTHLGIGGAGQGMSTPGSSPQHRPAGVSPLSLSTEARRQQASPTLSPLSPITQAVAMDALSLEQQLPYAFFTQAGSQQPPPQPQPPPPPPPASQQPPPPPPPQAPVRLPPGGPLLPSASLTRGPQPPPLAVTVPSSLPQSPPENPGQPSMGIDIASAPALQQYRTSAGSPANQSPTSPVSNQGFSPGSSPQHTSTLGSVFGDAYYEQQMAARQANALSHQLEQFNMMENAISSSSLYSPGSTLNYSQAAMMGLTGSHGSLPDSQQLGYASHSGIPNIILTVTGESPPSLSKELTSSLAGVGDVSFDSDSQFPLDELKIDPLTLDGLHMLNDPDMVLADPATEDTFRMDRL
modifications: Flag tag; human
On to B2, for which the Activity entry is recorded as “lacked almost all stimulating activity”. Moreover, the outcome (listed as KS) was Inactive.

B3: K4: CREAP1 fragment, amino acids 1-580, SEQ ID NO 35, Flag fusion (protein)
chain: MATSNNPRKFSEKIALHNQKQAEETAAFEEVMKDLSLTRAARLQLQKSQYLQLGPSRGQYYGGSLPNVNQIGSGTMDLPFQPSGFLGEALAAAPVSLTPFQSSGLDTSRTTRHHGLVDRVYRERGRLGSPHRRPLSVDKHGRQADSCPYGTMYLSPPADTSWRRTNSDSALHQSTMTPTQPESFSSGSQDVHQKRVLLLTVPGMEETTSEADKNLSKQAWDTKKTGSRPKSCEVPGINIFPSADQENTTALIPATHNTGGSLPDLTNIHFPSPLPTPLDPEEPTFPALSSSSSTGNLAANLTHLGIGGAGQGMSTPGSSPQHRPAGVSPLSLSTEARRQQASPTLSPLSPITQAVAMDALSLEQQLPYAFFTQAGSQQPPPQPQPPPPPPPASQQPPPPPPPQAPVRLPPGGPLLPSASLTRGPQPPPLAVTVPSSLPQSPPENPGQPSMGIDIASAPALQQYRTSAGSPANQSPTSPVSNQGFSPGSSPQHTSTLGSVFGDAYYEQQMAARQANALSHQLEQFNMMENAISSSSLYSPGSTLNYSQAAMMGLTGSHGSLPDSQQLGYASHSGIPNIILT
modifications: Flag tag; human
Turning to B3, the Activity result is on record as “retains almost all wild type activity; also recorded: Fully active”.

B4: K2: CREAP1 fragment, amino acids 1-356, SEQ ID NO 33, Flag fusion (protein)
chain: MATSNNPRKFSEKIALHNQKQAEETAAFEEVMKDLSLTRAARLQLQKSQYLQLGPSRGQYYGGSLPNVNQIGSGTMDLPFQPSGFLGEALAAAPVSLTPFQSSGLDTSRTTRHHGLVDRVYRERGRLGSPHRRPLSVDKHGRQADSCPYGTMYLSPPADTSWRRTNSDSALHQSTMTPTQPESFSSGSQDVHQKRVLLLTVPGMEETTSEADKNLSKQAWDTKKTGSRPKSCEVPGINIFPSADQENTTALIPATHNTGGSLPDLTNIHFPSPLPTPLDPEEPTFPALSSSSSTGNLAANLTHLGIGGAGQGMSTPGSSPQHRPAGVSPLSLSTEARRQQASPTLSPLSPITQAVA
modifications: Flag tag; human
For B4, the result was Inactive. For the same molecule, for the setting “K2 compared with K4 (removal of amino acids 356-580)”, the “reduction of functional activity of CREAP1” value was 10 fold.
